# From publication PMC3196492, “APOE Genotype-Function Relationship: Evidence of −491 A/T Promoter Polymorphism Modifying Transcription Control but Not Type 2 Diabetes Risk”
# B1: APOE promoter -491A probe (-521 to -461) (dsDNA)
# DNA 1: GTTTCACCATGTTGGCCAGGCTGGTCTCAAACTCCTGACCTTAAGTGATTCGCCCACTGTG
# DNA 2: CACAGTGGGCGAATCACTTAAGGTCAGGAGTTTGAGACCAGCCTGGCCAACATGGTGAAAC
# Biological target: ATF4 (human (ORF from 293 cells), UniProt P18848 1-351)
# Assay: EMSA; 1.2 uM ATF4, 3 nM probe; excess unlabeled probe competes completely; supershift with anti-ATF4 at 0.7 uM ATF4; 20 ul EMSA, 3 nM DIG-labeled probe, Roche kit instructions; buffer, salt, pH and temperature not stated
# Details: protein: recombinant; tags: His-tag; chain copies: 2; label: DIG; blunt
# Chain of ATF4 (P18848 whole entry): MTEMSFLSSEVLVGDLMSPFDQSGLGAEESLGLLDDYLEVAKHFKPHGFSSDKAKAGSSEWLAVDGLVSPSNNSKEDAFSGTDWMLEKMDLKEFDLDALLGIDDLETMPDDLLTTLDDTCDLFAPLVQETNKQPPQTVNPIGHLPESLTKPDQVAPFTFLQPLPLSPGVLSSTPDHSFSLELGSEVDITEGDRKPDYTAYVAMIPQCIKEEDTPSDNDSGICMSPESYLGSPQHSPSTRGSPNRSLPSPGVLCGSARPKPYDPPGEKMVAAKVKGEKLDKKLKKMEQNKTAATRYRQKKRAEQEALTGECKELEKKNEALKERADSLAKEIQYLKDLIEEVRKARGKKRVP
binder,measurement,value
B1,binding result,binds
